We go through 8 molecules from paper PMC8930183, “Structure of the Pf12 and Pf41 heterodimeric complex of Plasmodium falciparum 6-cysteine proteins” (FEMS Microbes, 2022).

Positions count from the first letter of the chain named. Some results are limits rather than exact numbers.

What all share (conditions): both partners purified
Assay [1] concerns the target T1, Pf12 labelled with DyLight 488 (Plasmodium falciparum (sequence as 3D7), DyLight 488 (N-hydroxysuccinimide ester), about 2.4 dye per protein).
T1 construct: Pf12, Plasmodium falciparum 6-cysteine protein; The FRET methods say only 'Pf12'; also called Pf12-DL488
T1 chain: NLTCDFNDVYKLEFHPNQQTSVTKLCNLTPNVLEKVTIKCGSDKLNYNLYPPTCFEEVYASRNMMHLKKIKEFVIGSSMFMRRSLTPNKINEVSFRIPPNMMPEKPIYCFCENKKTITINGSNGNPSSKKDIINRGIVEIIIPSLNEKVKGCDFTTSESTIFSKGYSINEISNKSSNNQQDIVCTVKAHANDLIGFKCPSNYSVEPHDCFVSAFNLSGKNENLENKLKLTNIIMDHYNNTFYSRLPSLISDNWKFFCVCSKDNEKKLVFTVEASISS
Description: FRET or BRET; Pf12-DL488 and Pf41-DL594 mixed 1:1 with five-fold excess of nanobody; FRET signal relative to the no-nanobody control.

Assay [2] addresses T2, Pf12 D2 (residues E174-S304) (Plasmodium falciparum, UniProt C6KSX0).
T2 construct: Pf12, Plasmodium falciparum, C-terminal 6-cys domain D2, residues E174-S304; also called Pf12 D2 domain; source: Spodoptera frugiperda 21 cells, purified by the same protocol as Pf12 D1D2; not shown: His8, N-terminal, cleaved
Kind of assay: BLI; Octet RED96e; nanobodies loaded on NTA sensors; untagged Pf12 or Pf41 (6-200 nM) or their domains in solution; PBS pH 7.4, 0.1% BSA, 0.05% TWEEN-20, 25°C; global 1:1 fit.

The target of assay [3] is T3, Pf41 D1D2 (residues 21-368), untagged (Plasmodium falciparum, UniProt Q8I1Y0).
T3 construct: Pf41, Plasmodium falciparum 6-cysteine protein, residues K21-S368 (D1 with the inserted-domain-like region ID, and D2); lacks the signal peptide and ten C-terminal residues; After TEV cleavage three residues, GAS, remain at the N-terminus as cloning artefacts; N-glycosylation sites kept; treated with PNGase F before crystallisation; also called Pf41 wildtype; source: Spodoptera frugiperda 21 …
The description is as above.

For assay [4], the target named is T4, Pf12 D1D2 (residues 28-304), untagged (Plasmodium falciparum, UniProt C6KSX0).
T4 construct: Pf12, Plasmodium falciparum 6-cysteine protein, residues N28-S304 (domains D1 and D2); lacks the signal peptide and the GPI-anchor site; After TEV cleavage three residues, GAS, remain at the N-terminus as cloning artefacts; N-glycosylation sites kept; treated with PNGase F before crystallisation; also called Pf12 wildtype; source: Spodoptera frugiperda 21 cells, secreted into growth media, …
Described as above.

Assay [5] deals with T5, Pf41 D2 (residues I242-S368) (Plasmodium falciparum 3D7, UniProt Q8I1Y0).
T5 construct: Pf41, Plasmodium falciparum, C-terminal 6-cys domain D2, residues I242-S368; also called Pf41 D2 domain; source: Spodoptera frugiperda 21 cells, purified by the same protocol as Pf41 D1D2; not shown: His8, N-terminal, cleaved
The assay is described as above.

Assay [6] addresses T6, octa-histidine tagged Pf41 D1D2 (residues 21-368) (Plasmodium falciparum, UniProt Q8I1Y0 21-368).
T6 construct: Pf41, Plasmodium falciparum 6-cysteine protein, residues K21-S368; TEV-cleavable tag left on; loaded on NTA sensors; also called tagged wildtype Pf41; source: Spodoptera frugiperda 21 cells, secreted into growth media, purified as tagged protein (Ni-IMAC, SEC); not shown: His8, N-terminal, kept
T6 sequence: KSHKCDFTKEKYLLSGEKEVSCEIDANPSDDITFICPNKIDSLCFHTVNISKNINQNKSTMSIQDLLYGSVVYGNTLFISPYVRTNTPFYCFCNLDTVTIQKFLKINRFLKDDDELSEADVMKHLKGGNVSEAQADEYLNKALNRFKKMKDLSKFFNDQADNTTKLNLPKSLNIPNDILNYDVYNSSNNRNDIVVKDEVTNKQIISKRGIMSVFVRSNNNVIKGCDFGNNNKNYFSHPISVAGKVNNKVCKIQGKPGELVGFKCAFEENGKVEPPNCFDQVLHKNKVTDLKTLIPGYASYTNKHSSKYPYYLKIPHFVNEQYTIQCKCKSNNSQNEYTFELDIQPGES
Kind of assay: BLI; Octet RED96e; octa-histidine tagged Pf41 loaded on NTA sensors; untagged Pf12 wildtype, mutant or single domain 31-1000 nM; PBS pH 7.4, 0.1% BSA, 0.05% TWEEN-20, 25°C; read-out relative maximum response against wildtype.

The target of assay [7] is T7, Pf41 D1D2 (residues 21-368), untagged (Plasmodium falciparum, UniProt Q8I1Y0 21-368).
T7 construct: Pf41, Plasmodium falciparum 6-cysteine protein, residues K21-S368 (D1 with the inserted-domain-like region ID, and D2); lacks the signal peptide and ten C-terminal residues; After TEV cleavage three residues, GAS, remain at the N-terminus as cloning artefacts; N-glycosylation sites kept; treated with PNGase F before crystallisation; also called Pf41 wildtype; source: Spodoptera frugiperda 21 …
T7 sequence (looked up): T6 sequence
Kind of assay: AUC; sedimentation velocity, 20°C, 50 000 rpm, absorbance at 280 nm, c(s) analysis with SEDFIT.

B1: nanobody A11 (VHH)
VHH: QVQLQESGGGLVQPGGSLRLSCAASGFTFDDYAIGWFRQAPGKEREGVSCIMSSDGSAYYADSVKGRFTISRDNAKNTVYLQMNSLRPEDTANYYCATDKIVCSTGFIVDYGMHYGGKGTQVTVSS
notes: alpaca, immunised with Pf12-Pf41 complex; Pf12-specific; source: E. coli WK6, periplasmic extract, purified (HisTrap, SEC)
Take B1: the “percent reduction of the Pf12-Pf41 FRET signal” value (shortened to “percent reduction”) in assay [1] is roughly 90%. The binding result in assay [2] is recorded as “binds”; in assay [3] it was “no binding”; in assay [4], “binds”.

B2: nanobody A6 (VHH)
VHH: QVQLQESGGGLVQPGGSLRLSCAASGGTIRSDGMGWFRQVPKKEREFVGMITYMGPVYTADSVEGRFAISRDNVKNTVYLQMNNLQPEDTAVYYCAVHVGGIYYYEGSYEYWGQGTQVTVSS
notes: alpaca, immunised with Pf12-Pf41 complex; Pf41-specific; source: E. coli WK6, periplasmic extract, purified (HisTrap, SEC)
On to B2, for which the binding result in assay [3] is given as “binds”; in assay [5], “no binding”.

B3: nanobody G11 (VHH)
VHH: B2 VHH with G33S, E64K, A68T, T90A, V99I, G100S, I102L, G107A, E110K
notes: as for B2
B3: the figures for the binding result in assay [3] and in assay [5] were “binds” and “no binding”, respectively.

B4: nanobody G12 (VHH)
VHH: B2 VHH with G33S, I51L, E64K, E88D, G100S, I102V, G107D, E110R
notes: as for B2
As to B4, the binding result in assay [3] is recorded as “binds”; in assay [5], “no binding”.

B5: Pf12 D1D2 (residues 28-304), untagged (domain or fragment, Plasmodium falciparum, UniProt C6KSX0 28-304, looked up)
chain: T1 chain
notes: Pf12, Plasmodium falciparum 6-cysteine protein, residues N28-S304 (domains D1 and D2); lacks the signal peptide and the GPI-anchor site; After TEV cleavage three residues, GAS, remain at the N-terminus as cloning artefacts; N-glycosylation sites kept; treated with PNGase F before crystallisation; also called Pf12 wildtype; source: Spodoptera frugiperda 21 cells, secreted into growth media, …
On to B5, for which the binding result in assay [6] and in assay [7] was “binds” throughout.

B6: nanobody H9 (VHH)
VHH: QVQLQESGGGLVQPGGSLRLSCAASGFTLDYYAIGWFRQAPGKEREGVSCIMSSDGSTYYADSVKGRFTISRDNAVNTVYLQMNGLKPEDTAVYYCATDKIVCGSGFIVDYGTDYRGKGTQVTVSS
notes: as for B1
Consider B6, for which the “percent reduction” value in assay [1] was roughly 90%. The binding result in assay [3] is “no binding”. The Kd in assay [4] is less than 0.01 nM.

B7: nanobody A3 (VHH)
VHH: QVQLQESGGGLVQAGGSLRLSCAASGRTFSNYAMGWFRQAPGKEREFVAAITWSGDSTYYGDSVKGRFTISRDNAKSTAYLQMNSLKPEDTAVYYCAADEAVVTTTLQWDYWGQGTQVTVSS
notes: as for B1
With B7, in assay [1], the “percent reduction” value was roughly 90%. In addition, the binding result is listed as “binds” in assay [2], “no binding” in assay [3] and “binds” in assay [4].

B8: nanobody G7 (VHH)
VHH: QVQLQESGGGLVQAGGSLRLSCAASGRTFSSYGMGWFRQAPGTEREFVAAISWSGDSTYYADSVKGRFTISIDKAKNTVYLQMNSLKPEDTAVYYCAADHALVVGGTYNYWGQGTQVTVSS
notes: alpaca, immunised with Pf12-Pf41 complex; Pf12-specific; also called Nb G7; source: E. coli WK6, periplasmic extract, purified (HisTrap, SEC)
For B8, the “percent reduction” value in assay [1] is roughly 80%. Besides, in assay [3], the binding result is recorded as “no binding”. Moreover, in assay [4], the equilibrium dissociation constant (Kd) is roughly 25 nM.
